Source: patent US20230263867

Legend:
[1] = system: fluorescent tripeptidyl substrate PRR, MeOC-GGG-PRR-GG-DPA-KK-NH2
[2] = biological target: albumin in human plasma / human serum (UniProt P02768)
[3] = system: recombinant pro-fruit bromelain
[4] = system: recombinant pro-stem bromelain
[5] = system: T1, FVR-7-amino-4-methylcoumarin
T1 sequence: FVR

Chain of UniProt P02768 (P02768 whole entry, looked up): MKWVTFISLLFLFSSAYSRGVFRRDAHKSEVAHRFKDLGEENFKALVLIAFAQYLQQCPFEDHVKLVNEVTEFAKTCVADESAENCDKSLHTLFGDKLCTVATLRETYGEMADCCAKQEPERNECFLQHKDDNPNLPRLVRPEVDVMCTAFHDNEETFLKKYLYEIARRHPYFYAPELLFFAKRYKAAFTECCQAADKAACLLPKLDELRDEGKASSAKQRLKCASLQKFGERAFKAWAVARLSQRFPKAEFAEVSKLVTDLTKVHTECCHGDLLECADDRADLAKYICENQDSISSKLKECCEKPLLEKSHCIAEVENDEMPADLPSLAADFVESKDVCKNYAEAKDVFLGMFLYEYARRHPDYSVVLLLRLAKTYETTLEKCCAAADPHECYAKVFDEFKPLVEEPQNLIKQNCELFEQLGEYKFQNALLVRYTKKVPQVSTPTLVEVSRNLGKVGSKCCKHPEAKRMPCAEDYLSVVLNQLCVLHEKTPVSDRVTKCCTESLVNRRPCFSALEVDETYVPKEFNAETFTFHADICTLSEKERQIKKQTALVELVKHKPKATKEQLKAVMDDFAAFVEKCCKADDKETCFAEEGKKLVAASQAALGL

## activated stem bromelain
[1]
  initial rate of proteolysis of PRR (fluorescence): about 0.024 µg PRR molecules per min

## recombinant pro-stem bromelain
[1]
  initial rate of proteolysis of PRR (fluorescence): the cleavage of PRR by 100 nM Pro-SB was negligible

## active ananain (recombinant, obtained by activation of pro-ananain)
[2]
  proteolysis of human plasma/serum proteins, SDS-PAGE: The clear reduction of albumin in sample A, C and D in the presence of ananain indicates that albumin is a protein substrate for ananain
[3]
  cleavage of pro-FB on an ananain-immobilized column, SDS-PAGE: The collected activated FB was subject to SDS-PAGE analysis and was confirmed to be fully activated
[4]
  cleavage of pro-SB by active ananain, SDS-PAGE time course: mixing active ananain and pro-SB at a weight ratio of 1:25 led to a complete cleavage of pro-SB within 10 min, resulting in two fragments of 24 and 12 kDa
  cleavage of pro-SB on an ananain-immobilized column, SDS-PAGE: The collected activated SB was subject to SDS-PAGE analysis and was confirmed to be fully activated

## recombinant pro-fruit bromelain
[5]
  proteolysis of FVR-AMC (fluorescence): pro-FB did not cleave FVR-AMC at all
